Experimental findings from patent US20240182585A1 (CAMBRIDGE ENTERPRISE, published 2024) are described below.

Some results are limits rather than exact numbers.

Assay [1] addresses T1, His-tagged human GFRAL (recombinant soluble GFRAL protein, R&D catalogue no. 9647-GR-050) (human, UniProt Q6UXV0 19-351).
T1 construct: Bought soluble protein; also called Human GFRAL with a 6His tag; GFRAL antigen; not shown: 6His tag
T1 sequence: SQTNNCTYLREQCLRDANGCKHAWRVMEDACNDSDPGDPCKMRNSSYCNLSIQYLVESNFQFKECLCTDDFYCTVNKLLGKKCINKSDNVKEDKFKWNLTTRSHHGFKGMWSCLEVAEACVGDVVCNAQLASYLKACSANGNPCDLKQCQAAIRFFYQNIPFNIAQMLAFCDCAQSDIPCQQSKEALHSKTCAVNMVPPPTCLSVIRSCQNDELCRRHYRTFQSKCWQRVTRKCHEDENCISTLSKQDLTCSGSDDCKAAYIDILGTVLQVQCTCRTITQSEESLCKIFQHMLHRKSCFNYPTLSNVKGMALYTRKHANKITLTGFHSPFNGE
Briefly: SPR sandwich assay: row antibody captured via anti-Fc, GFRAL antigen added, then mAbQ injected as analyte (competitor: mAb Q). The method, then: (§1) In this assay, pairs of antibodies are tested for their ability to simultaneously bind antigen. A first antibody is coupled via its Fc region to a solid support and the GFRAL antigen is added in solution, allowing formation of an antibody-antigen complex. A second antibody is then added in solution.

The target in assay [2] is T2, human GFRAL expressed on the surface of HEK293 cells (co-expressed with human RET) (human, UniProt Q6UXV0 19-394).
T2 sequence: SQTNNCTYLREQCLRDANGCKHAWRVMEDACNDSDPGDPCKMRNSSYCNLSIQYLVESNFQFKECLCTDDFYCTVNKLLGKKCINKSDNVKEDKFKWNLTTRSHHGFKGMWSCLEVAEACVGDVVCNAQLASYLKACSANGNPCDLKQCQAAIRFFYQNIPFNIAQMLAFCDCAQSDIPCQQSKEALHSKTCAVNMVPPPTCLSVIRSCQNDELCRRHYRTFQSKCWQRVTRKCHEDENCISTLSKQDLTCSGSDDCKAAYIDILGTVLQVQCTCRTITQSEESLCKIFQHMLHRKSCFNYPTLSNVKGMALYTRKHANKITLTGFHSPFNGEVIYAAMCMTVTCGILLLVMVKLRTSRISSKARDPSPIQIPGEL
Put plainly: cell-based or functional assay.

For assay [3], the target named is T3, mouse GFRAL-Fc fusion (R&D catalogue no. 9844-GR-050050) (mouse, UniProt Q6SJE0 20-349).
T3 construct: Bought fusion protein; not shown: Fc part of the bought fusion
T3 sequence: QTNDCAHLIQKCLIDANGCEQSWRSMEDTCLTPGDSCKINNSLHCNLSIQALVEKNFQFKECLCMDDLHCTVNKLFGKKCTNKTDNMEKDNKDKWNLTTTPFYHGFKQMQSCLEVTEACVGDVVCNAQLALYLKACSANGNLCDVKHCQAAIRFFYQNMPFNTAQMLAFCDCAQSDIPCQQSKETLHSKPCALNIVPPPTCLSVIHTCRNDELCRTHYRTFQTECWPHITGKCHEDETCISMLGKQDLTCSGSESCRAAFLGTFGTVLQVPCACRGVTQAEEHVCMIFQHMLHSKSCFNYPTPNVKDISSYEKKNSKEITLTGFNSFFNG
Put plainly: SPR, antibody captured via anti-human Fc, mouse GFRAL-Fc fusion as analyte, method of Example 2. On the procedure:
(§2) Binding of antibodies to human GFRAL was measured by SPR using His-tagged human GFRAL as analyte, and test antibody coupled to the surface of a CM4 biosensor chip via immobilised anti-human Fc antibody. Running buffer was HBS-P+ buffer pH 7.4 (GE BR100671) with 1 mM CaCl₂. Antibodies were captured for 60 seconds at 1 μg/ml (˜80-140 RU captured, depending on the binder). Analyte (recombinant soluble GFRAL protein, R&D catalogue no. 9647-GR-050) was injected at 100, 25, 6.25, 1.56, 0.39, 0.098, 0.024 and 0 nM for 120 seconds association time at […] and dissociation was monitored for 1200 seconds. The chip surface was regenerated using 10 mM glycine pH 1.5. All experiments were performed at 25° C. Sensorgrams for each antibody were double subtracted (reference cell and 0 concentration). Data were fitted to a 1:1 binding interaction model. Sensorgrams were fitted using multiple cycle kinetics mode. […] FIG. 5.
Affinity for mouse GFRAL was determined by SPR by the same method as in Example 2 using a mouse GFRAL-Fc fusion (R&D catalogue no. 9844-GR-050050) as analyte. FIG. 6.

The target of assay [4] is T3, mouse GFRAL-Fc fusion (R&D catalogue …). Briefly: SPR, KD for mouse GFRAL compared with KD for human GFRAL. A general note: SPR reads the build-up and loss of mass on a sensor chip optically.
Assay [5] has as its target T1, His-tagged human GFRAL (recombinant …). Put plainly: SPR, antibody captured via anti-human Fc on CM4 chip, His-tagged human GFRAL as analyte, 25 C, 1:1 model. The method, then: as §2
The target is the same in assay [6]. Put plainly: SPR sandwich assay: row antibody captured via anti-Fc, GFRAL antigen added, then GDF15 injected as analyte (competitor: GDF15). On the procedure:
as §1
The same principle may be used to assess whether an antibody and a native ligand compete for binding to antigen. Thus, a test antibody is coupled to a solid support and the GFRAL antigen is added in solution, allowing formation of an antibody-GFRAL complex. GDF15 is then added in solution.

For assay [7] the target is unchanged. Briefly: SPR, KD for human GFRAL of QUEL-0301 compared with reference antibody mAb Q.
The target in assay [8] is T2, human GFRAL expressed on the surface of …. Put plainly: cell-based or functional assay. The source holds these as a separate data set.

B1: QUEL-0201 (antibody, V domains shown)
VH: QVQLVQSGAEVKEPGASVRVSCKASGYTFISHAIHWVRQAPGQRLEWMGWINAVNGNTKYSQKFQDRVTFTRDTSASTAYMDLNSLRAEDTALYYCAREGYTYGVHYSYGMDVWGQGTTVTVSS
VL: QSVLTQPPSVSGAPGQRVTISCTGSSSNIGAGYDVHWYQQLPGTVLKLLIYGNNNRPSGVPDRFSGSNSGTSASLAITGLQPEDEADYYCQSYDSSLSGYWVFGGGTKLTVL
notes: the antibody was captured via anti-human Fc antibody
In general, Kd refers to the free concentration of one partner at which half of the binding sites on the other are occupied at equilibrium, for simple one-to-one binding. For orientation: koff means a measure of how fast the partners let go of each other. Broadly, the kon is the rate constant with which the complex forms. B1: the “resonance units after mAbQ injection” value in assay [1] stood at 268 resonance units. For the same molecule, the “IC50 (ERK phosphorylation HTRF assay, 4 nM GDF15)” value (from here on “IC50”) in assay [2] is 8.6 nM. In addition, in assay [3], binding was put at a Kd of 0.0648 nM, the koff worked out at 9.9e-06 s⁻¹ and the on-rate constant (kon) is 153000 M⁻¹ s⁻¹. Further, the “fold difference in affinity, human against mouse GFRAL” value in assay [4] is no more than 1.5 fold. In assay [5], the equilibrium dissociation constant (Kd) stood at 0.0839 nM, the off-rate (koff) came to 6.19e-05 s⁻¹ and the on-rate (kon) was 738000 M⁻¹ s⁻¹. The “resonance units after GDF15 injection” value in assay [6] amounted to 83.9 resonance units.

B2: QUEL-0301 (antibody, V domains shown)
VH: EVQLVESGGGLVQPGGSLRLSCAASGFTFSNSWMNWVRQTPGKGLEWVANIDQDGDQKYYVDSVKGRFTISRDNAKNSLYLQMNSLRAEDTAVYYCAREITGTTFDYWGQGTLVTVSS
VL: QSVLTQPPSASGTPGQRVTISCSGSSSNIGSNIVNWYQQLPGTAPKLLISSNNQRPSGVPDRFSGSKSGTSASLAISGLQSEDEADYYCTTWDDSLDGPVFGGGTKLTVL
notes: as for B1
Take B2: in assay [1], the “resonance units after mAbQ injection” value was 298 resonance units. The “IC50” value in assay [2] worked out at 9.4 nM. In assay [3], this molecule registered a Kd of 4.95 nM, a dissociation rate constant (koff) of 0.000524 s⁻¹ and an on-rate (kon) of 106000 M⁻¹ s⁻¹. Further, the “fold difference in affinity against mAb Q” value in assay [7] was roughly 4 fold. In addition, in assay [5], the Kd was found to be 0.000988 nM, the koff stood at 9.72e-06 s⁻¹ and the kon worked out at 9.83e+06 M⁻¹ s⁻¹. For the same molecule, the “resonance units after GDF15 injection” value in assay [6] was determined as 77.3 resonance units.

B3: recombinant human GDF15 protein with 6-His tag (R&D Systems, 957-GD) (ligand, UniProt Q99988 197-308, looked up)
chain: ARNGDHCPLGPGRCCRLHTVRASLEDLGWADWVLSPREVQVTMCIGACPSQFRAANMHAQIKTSLHRLKPDTVPAPCCVPASYNPMVLIQKTDTGVSLQTYDDLLAKDCHCI
For orientation: EC50 (read off the curve) means the midpoint of the concentration-response curve. Lower therefore signals an effect from little substance. Turning to B3, the “EC50 (read off the curve)” value in assay [8] is roughly 1 nM.

B4: QUEL-0101 (antibody, V domains shown)
VH: QVQLVESGGGVVQPGRSLRLSCAASGFAFNNYGMHWVRQGPGRGLEWVAIISYDGTTQYSVDSVKGRFTISRDNSKNTLYLQMNSLRTEDTALYYCAKEAGDFYGSGNYGYHKYGLDVWGQGTTVTVSS
VL: DIQMTQSPSSLSASVGDRVTITCRASQDISNYLAWYQQKPGKIPKLLIYAASTLQSGVPSRFSGSGSGTDFTLTISSLQPEDVASYYCQKYSSAPLTFGGGTKVEIK
notes: as for B1
Turning to B4, the “resonance units after mAbQ injection” value in assay [1] was found to be 306 resonance units. In assay [2], the “IC50” value was 2.8 nM. In assay [3], this molecule registered a Kd of 1.19 nM, a koff of 0.000112 s⁻¹ and a kon of 93700 M⁻¹ s⁻¹. For the same molecule, the “fold difference in affinity, human against mouse GFRAL” value in assay [4] is no more than 10 fold. Further, in assay [5], the Kd amounted to 0.14 nM, the dissociation rate constant (koff) is 7.87e-05 s⁻¹ and the kon turned out to be 561000 M⁻¹ s⁻¹. For the same molecule, the “resonance units after GDF15 injection” value in assay [6] is 87.3 resonance units.
